Where a chain is given by its changes, count along the chain named. In names and notes the source's numbering stands. One block for each molecule: values may come before it.
Key:
[1] = molecular target: Tth MAG lipase (wild type), monoacylglycerol lipase from Thermoanaerobacter thermohydrosulfuricus (Thermoanaerobacter thermohydrosulfuricus); assay: SEC; size exclusion chromatography profile, Superdex 75 increase 3.2/300 column (Cytiva); dimeric and monomeric fractions
Tth MAG lipase [2] = molecular target: T1, Tth MAG lipase (Thermoanaerobacter ethanolicus, UniProt A0A1G7VV58); assay: X-ray crystal structure; format: binding; conditions: active site, bound by Glu43; native protein crystals, no glycerol added
T1 construct: gene SAMN04244560_02687; full length, residues 1-259; E. coli; pETM-14, Ni-NTA purified (kinetics); pETBlue-1 (crystals, some SeMet and lysine-methylated); homodimer; Ser113/His233, HGF 35-37, FSE 77-79, lid 141-183

Tth MAG lipase [3] = molecular target: T1, Tth MAG lipase; assay: X-ray crystal structure; LC-MS of dissolved crystals; format: binding; conditions: endogenous ligand from E. coli; loosely coordinated tetrahedral intermediate at Ser113; SeMet, lysine-methylated protein; active site and lid tunnel
Tth MAG lipase [4] = molecular target: T1, Tth MAG lipase; assay: pNP ester hydrolysis, […] nm, Michaelis-Menten fit; format: biochemical; conditions: 50 mM Tris-HCl pH 8.0, 40 °C, 1 mg/ml gum arabic
purified protein [5] = substrate: CCCC(=O)Oc1ccc([N+](=O)[O-])cc1; assay: purified protein; format: biochemical, Thermoanaerobacter ethanolicus; conditions: 50 mM Tris-HCl pH 8.0, 40 °C, 1 mg/ml gum arabic
purified protein [6] = substrate: CCCCCC(=O)Oc1ccc([N+](=O)[O-])cc1; assay: purified protein; format: biochemical, Thermoanaerobacter ethanolicus; conditions: 50 mM Tris-HCl pH 8.0, 40 °C, 1 mg/ml gum arabic
purified protein [7] = substrate: CCCCCCCC(=O)Oc1ccc([N+](=O)[O-])cc1; assay: purified protein; format: biochemical, Thermoanaerobacter ethanolicus; conditions: 50 mM Tris-HCl pH 8.0, 40 °C, 1 mg/ml gum arabic
purified protein [8] = substrate: CCCCCCCCCCCC(=O)Oc1ccc([N+](=O)[O-])cc1; assay: purified protein; format: biochemical, Thermoanaerobacter ethanolicus; conditions: 50 mM Tris-HCl pH 8.0, 40 °C, 1 mg/ml gum arabic
purified protein [9] = substrate: CCCCCCCCCCCCCC(=O)Oc1ccc([N+](=O)[O-])cc1; assay: purified protein; format: biochemical, Thermoanaerobacter ethanolicus; conditions: 50 mM Tris-HCl pH 8.0, 40 °C, 1 mg/ml gum arabic

stoichiometry N [1]: 2
Molecule: Tth MAG lipase (wild type), monoacylglycerol lipase from Thermoanaerobacter thermohydrosulfuricus (enzyme)

Molecule: OCC(O)CO [glycerol]
X-ray crystal structure (Tth MAG lipase [2]): glycerol is found in a literally identical active site position in five out of six

Molecule: CCCCCCCCCCCCCCCCCC(=O)OCC(O)CO (stereo not shown) [glycerol monostearate, 2,3-dihydroxypropyloctadecanoate]
X-ray crystal structure; LC-MS of dissolved crystals (Tth MAG lipase [3]): we modeled a monostearate (C18) acyl ligand into the electron density of the active Tth

Km (Tth MAG lipase [4]): > 2000 µM
Molecule: CC(=O)Oc1ccc([N+](=O)[O-])cc1 [C2 pNP ester]

B1: Tth MAG lipase (Thermoanaerobacter ethanolicus subsp. thermohydrosulfuricus) (protein)
chain: MQKAVEITYNGKTLRGMMHLPDDVKGKVPMVIMFHGFTGNKVESHFIFVKMSRALEKVGIGSVRFDFYGSGESDGDFSEMTFSSELEDARQILKFVKEQPTTDPERIGLLGLSMGGAIAGIVAREYKDEIKALVLWAPAFNMPELIMHESVKQYGAIMEQLGFVDIGGHKLSKDFVEDISKLNIFELSKGYDKKVLIVHGTNDEAVEYKVSDRILKEVYGDNATRVTIENADHTFKSLEWEKKAIEESVEFFKKELLKG
notes: full length, residues 1-259; E. coli; pETM-14, Ni-NTA purified (kinetics); pETBlue-1 (crystals, some SeMet and lysine-methylated); homodimer; Ser113/His233, HGF 35-37, FSE 77-79, lid 141-183
Km (purified protein [5]): 7.1 ± 0.7 x 10^-1 mM | kcat (purified protein [5]): 8.6 ± 0.5 s⁻¹ | Km (purified protein [6]): 3.6 ± 0.8 x 10^-1 mM | kcat (purified protein [6]): 4.9 ± 0.4 s⁻¹ | Km (purified protein [7]): 4.9 ± 1.5 x 10^-1 mM | kcat (purified protein [7]): 5.5 ± 0.8 s⁻¹ | Km (purified protein [8]): 100 µM | Km (purified protein [9]): 100 µM

B2: Tth MAG lipase (Thermoanaerobacter ethanolicus subsp. thermohydrosulfuricus; Y154A) (protein)
chain: B1 chain with Y154A
notes: as for B1
Km (purified protein [6]): 4.8 ± 0.8 x 10^-1 mM | kcat (purified protein [6]): 5.7 ± 0.4 s⁻¹

B3: Tth MAG lipase (Thermoanaerobacter ethanolicus subsp. thermohydrosulfuricus; E43A) (protein)
chain: B1 chain with E43A
notes: as for B1
Km (purified protein [6]): 7.1 ± 3.0 x 10^-1 mM | kcat (purified protein [6]): 1.2 ± 0.3 x 10^1 s^-1
